{
  "source": "paper PMC5262380",
  "about": "“Structural insights into the mechanism of the DEAH-box RNA helicase Prp43” (eLife, 2017)",
  "key": {"[1]": {"substrate": "Nc1ncnc2c1ncn2[C@@H]1O[C@H](COP(=O)(O)OP(=O)(O)OP(=O)(O)O)[C@@H](O)[C@H]1O", "assay": "NADH-coupled ATPase assay (pyruvate kinase / lactate dehydrogenase)", "type": "biochemical, Thermochaetoides thermophila", "details": "no RNA, ctPfa1-GP in five-fold excess, pH 7.5, 150 mM KCl, 3 mM MgCl2, 25 °C", "from_the_text": "NADH-coupled ATPase assay (pyruvate kinase / lactate dehydrogenase) on ctPrp43 + ctPfa1-GP"}, "[2]": {"substrate": "Nc1ncnc2c1ncn2[C@@H]1O[C@H](COP(=O)(O)OP(=O)(O)OP(=O)(O)O)[C@@H](O)[C@H]1O", "assay": "NADH-coupled ATPase assay (pyruvate kinase / lactate dehydrogenase)", "type": "biochemical, Thermochaetoides thermophila", "details": "no RNA, no G-patch, pH 7.5, 150 mM KCl, 3 mM MgCl2, 25 °C", "from_the_text": "NADH-coupled ATPase assay (pyruvate kinase / lactate dehydrogenase) on ctPrp43"}, "[3]": {"details": "ctPrp43-IDSB, mainly oxidized (internal disulfide bond)"}},
  "data": [
    {"protein": "ctPrp43 + ctPfa1-GP (Thermochaetoides thermophila DSM 1495; F181C/N623C) (protein, full-length Prp43 (GST tag removed) plus G-patch fragment ctPfa1(662-742) in five-fold excess, both recombinant, tags cut; with Uncharacterized protein (G-patch protein Pfa1)) MADITKGTKRLSGEAEGSQDSKRVKTNGDKMDAKNPYLAHLEEKPEADFESLLDKLERRNTTAKQAEAVEDSDINPWTGQRHSERYFKILKARRKLPVNKQRQEFLDLYHNNQILVFVGETGSGKTTQIPQYVLYDELPHQTGKLIACTQPRRVAAMSVAQRVADELDVKLGEEVGYSIRCENKTSSKTLLKYMTDGQLLREAMHDRDMSRYSCIILDEAHERTLATDILMALLKQLSERRKDLKIIVMSATLDAQKFQSYFFNAPLLAVPGRTHPVEIFYTPEAERDYVEAAIRTVLQIHACEPEGDILLFLTGEEEIEDACRRISLEVDEMIRESDAGPMSVYPLYGTLPPHQQQRIFEKAPQPFRPGGRPGRKCIVATNIAETSLTIDGIVYVVDPGFSKQKIYNPRTRVESLLVSPISKASAQQRAGRAGRTRPGKCFRLYTEEAFKKELIEQTYPEILRSNLSNTVLELKKLGVEDLVHFDLMDPPAPETMMRALEELNYLACLDDDGELTPLGNLASEFPLDPALAVMLISSPEFYCSNEILSITSLLSVPQIWVRPANARKRADEMKAQFAHPDGDHLTLLNAYHAYKGAEARGEDMKKWCHEHFLSYRHLSSADCVRAQLKKIMETHGIELVSTPFHDKNYYTNIRRALLAGFFMQVAMRESSNSKVYKTVKDEQLVLIHPSTTVTTPYEWVVYNEFVLTTKQYVRTVTNIRPEWLLEIAPVYYDLSTFQKGEIKNALTRVAEKIRRQQAMKASKA", "values": [
      {"measurement": "Km", "setting": "[1]; [3]", "result": "29.04 ± 1.35", "unit": "µM"},
      {"measurement": "kcat", "setting": "[1]; [3]", "result": 3.32, "unit": "s⁻¹"}
    ]},
    {"protein": "ctPrp43 (Thermochaetoides thermophila DSM 1495; F181G/R180G/T350G/Y348G) (protein, full length (residues 1-764), recombinant, GST tag removed, expressed as previously described) MADITKGTKRLSGEAEGSQDSKRVKTNGDKMDAKNPYLAHLEEKPEADFESLLDKLERRNTTAKQAEAVEDSDINPWTGQRHSERYFKILKARRKLPVNKQRQEFLDLYHNNQILVFVGETGSGKTTQIPQYVLYDELPHQTGKLIACTQPRRVAAMSVAQRVADELDVKLGEEVGYSIGGENKTSSKTLLKYMTDGQLLREAMHDRDMSRYSCIILDEAHERTLATDILMALLKQLSERRKDLKIIVMSATLDAQKFQSYFFNAPLLAVPGRTHPVEIFYTPEAERDYVEAAIRTVLQIHACEPEGDILLFLTGEEEIEDACRRISLEVDEMIRESDAGPMSVYPLGGGLPPHQQQRIFEKAPQPFRPGGRPGRKCIVATNIAETSLTIDGIVYVVDPGFSKQKIYNPRTRVESLLVSPISKASAQQRAGRAGRTRPGKCFRLYTEEAFKKELIEQTYPEILRSNLSNTVLELKKLGVEDLVHFDLMDPPAPETMMRALEELNYLACLDDDGELTPLGNLASEFPLDPALAVMLISSPEFYCSNEILSITSLLSVPQIWVRPANARKRADEMKAQFAHPDGDHLTLLNAYHAYKGAEARGEDMKKWCHEHFLSYRHLSSADNVRAQLKKIMETHGIELVSTPFHDKNYYTNIRRALLAGFFMQVAMRESSNSKVYKTVKDEQLVLIHPSTTVTTPYEWVVYNEFVLTTKQYVRTVTNIRPEWLLEIAPVYYDLSTFQKGEIKNALTRVAEKIRRQQAMKASKA", "values": [
      {"measurement": "Km", "setting": "[2]; ctPrp43-HT&HL", "result": "16.72 ± 1.49", "unit": "µM"},
      {"measurement": "kcat", "setting": "[2]; ctPrp43-HT&HL", "result": 0.127, "unit": "s⁻¹"}
    ]},
    {"protein": "ctPrp43 + ctPfa1-GP (Thermochaetoides thermophila DSM 1495; T350G/Y348G) (protein, full-length Prp43 (GST tag removed) plus G-patch fragment ctPfa1(662-742) in five-fold excess, both recombinant, tags cut; with Uncharacterized protein (G-patch protein Pfa1)) MADITKGTKRLSGEAEGSQDSKRVKTNGDKMDAKNPYLAHLEEKPEADFESLLDKLERRNTTAKQAEAVEDSDINPWTGQRHSERYFKILKARRKLPVNKQRQEFLDLYHNNQILVFVGETGSGKTTQIPQYVLYDELPHQTGKLIACTQPRRVAAMSVAQRVADELDVKLGEEVGYSIRFENKTSSKTLLKYMTDGQLLREAMHDRDMSRYSCIILDEAHERTLATDILMALLKQLSERRKDLKIIVMSATLDAQKFQSYFFNAPLLAVPGRTHPVEIFYTPEAERDYVEAAIRTVLQIHACEPEGDILLFLTGEEEIEDACRRISLEVDEMIRESDAGPMSVYPLGGGLPPHQQQRIFEKAPQPFRPGGRPGRKCIVATNIAETSLTIDGIVYVVDPGFSKQKIYNPRTRVESLLVSPISKASAQQRAGRAGRTRPGKCFRLYTEEAFKKELIEQTYPEILRSNLSNTVLELKKLGVEDLVHFDLMDPPAPETMMRALEELNYLACLDDDGELTPLGNLASEFPLDPALAVMLISSPEFYCSNEILSITSLLSVPQIWVRPANARKRADEMKAQFAHPDGDHLTLLNAYHAYKGAEARGEDMKKWCHEHFLSYRHLSSADNVRAQLKKIMETHGIELVSTPFHDKNYYTNIRRALLAGFFMQVAMRESSNSKVYKTVKDEQLVLIHPSTTVTTPYEWVVYNEFVLTTKQYVRTVTNIRPEWLLEIAPVYYDLSTFQKGEIKNALTRVAEKIRRQQAMKASKA", "values": [
      {"measurement": "Km", "setting": "[1]; ctPrp43-HL", "result": "14.38 ± 0.89", "unit": "µM"},
      {"measurement": "kcat", "setting": "[1]; ctPrp43-HL", "result": 1.44, "unit": "s⁻¹"}
    ]},
    {"protein": "ctPrp43 + ctPfa1-GP (Thermochaetoides thermophila DSM 1495; F181G/R180G/T350G/Y348G) (protein, full-length Prp43 (GST tag removed) plus G-patch fragment ctPfa1(662-742) in five-fold excess, both recombinant, tags cut; with Uncharacterized protein (G-patch protein Pfa1)) MADITKGTKRLSGEAEGSQDSKRVKTNGDKMDAKNPYLAHLEEKPEADFESLLDKLERRNTTAKQAEAVEDSDINPWTGQRHSERYFKILKARRKLPVNKQRQEFLDLYHNNQILVFVGETGSGKTTQIPQYVLYDELPHQTGKLIACTQPRRVAAMSVAQRVADELDVKLGEEVGYSIGGENKTSSKTLLKYMTDGQLLREAMHDRDMSRYSCIILDEAHERTLATDILMALLKQLSERRKDLKIIVMSATLDAQKFQSYFFNAPLLAVPGRTHPVEIFYTPEAERDYVEAAIRTVLQIHACEPEGDILLFLTGEEEIEDACRRISLEVDEMIRESDAGPMSVYPLGGGLPPHQQQRIFEKAPQPFRPGGRPGRKCIVATNIAETSLTIDGIVYVVDPGFSKQKIYNPRTRVESLLVSPISKASAQQRAGRAGRTRPGKCFRLYTEEAFKKELIEQTYPEILRSNLSNTVLELKKLGVEDLVHFDLMDPPAPETMMRALEELNYLACLDDDGELTPLGNLASEFPLDPALAVMLISSPEFYCSNEILSITSLLSVPQIWVRPANARKRADEMKAQFAHPDGDHLTLLNAYHAYKGAEARGEDMKKWCHEHFLSYRHLSSADNVRAQLKKIMETHGIELVSTPFHDKNYYTNIRRALLAGFFMQVAMRESSNSKVYKTVKDEQLVLIHPSTTVTTPYEWVVYNEFVLTTKQYVRTVTNIRPEWLLEIAPVYYDLSTFQKGEIKNALTRVAEKIRRQQAMKASKA", "values": [
      {"measurement": "Km", "setting": "[1]; ctPrp43-HT&HL", "result": "25.17 ± 1.37", "unit": "µM"},
      {"measurement": "kcat", "setting": "[1]; ctPrp43-HT&HL", "result": 1.89, "unit": "s⁻¹"}
    ]},
    {"protein": "ctPrp43 (Thermochaetoides thermophila DSM 1495; T350G/Y348G) (protein, full length (residues 1-764), recombinant, GST tag removed, expressed as previously described) MADITKGTKRLSGEAEGSQDSKRVKTNGDKMDAKNPYLAHLEEKPEADFESLLDKLERRNTTAKQAEAVEDSDINPWTGQRHSERYFKILKARRKLPVNKQRQEFLDLYHNNQILVFVGETGSGKTTQIPQYVLYDELPHQTGKLIACTQPRRVAAMSVAQRVADELDVKLGEEVGYSIRFENKTSSKTLLKYMTDGQLLREAMHDRDMSRYSCIILDEAHERTLATDILMALLKQLSERRKDLKIIVMSATLDAQKFQSYFFNAPLLAVPGRTHPVEIFYTPEAERDYVEAAIRTVLQIHACEPEGDILLFLTGEEEIEDACRRISLEVDEMIRESDAGPMSVYPLGGGLPPHQQQRIFEKAPQPFRPGGRPGRKCIVATNIAETSLTIDGIVYVVDPGFSKQKIYNPRTRVESLLVSPISKASAQQRAGRAGRTRPGKCFRLYTEEAFKKELIEQTYPEILRSNLSNTVLELKKLGVEDLVHFDLMDPPAPETMMRALEELNYLACLDDDGELTPLGNLASEFPLDPALAVMLISSPEFYCSNEILSITSLLSVPQIWVRPANARKRADEMKAQFAHPDGDHLTLLNAYHAYKGAEARGEDMKKWCHEHFLSYRHLSSADNVRAQLKKIMETHGIELVSTPFHDKNYYTNIRRALLAGFFMQVAMRESSNSKVYKTVKDEQLVLIHPSTTVTTPYEWVVYNEFVLTTKQYVRTVTNIRPEWLLEIAPVYYDLSTFQKGEIKNALTRVAEKIRRQQAMKASKA", "values": [
      {"measurement": "Km", "setting": "[2]; ctPrp43-HL", "result": "14.31 ± 0.71", "unit": "µM"},
      {"measurement": "kcat", "setting": "[2]; ctPrp43-HL", "result": 0.103, "unit": "s⁻¹"}
    ]},
    {"protein": "ctPrp43 (Thermochaetoides thermophila DSM 1495; F181C/N623C) (protein, full length (residues 1-764), recombinant, GST tag removed, expressed as previously described) MADITKGTKRLSGEAEGSQDSKRVKTNGDKMDAKNPYLAHLEEKPEADFESLLDKLERRNTTAKQAEAVEDSDINPWTGQRHSERYFKILKARRKLPVNKQRQEFLDLYHNNQILVFVGETGSGKTTQIPQYVLYDELPHQTGKLIACTQPRRVAAMSVAQRVADELDVKLGEEVGYSIRCENKTSSKTLLKYMTDGQLLREAMHDRDMSRYSCIILDEAHERTLATDILMALLKQLSERRKDLKIIVMSATLDAQKFQSYFFNAPLLAVPGRTHPVEIFYTPEAERDYVEAAIRTVLQIHACEPEGDILLFLTGEEEIEDACRRISLEVDEMIRESDAGPMSVYPLYGTLPPHQQQRIFEKAPQPFRPGGRPGRKCIVATNIAETSLTIDGIVYVVDPGFSKQKIYNPRTRVESLLVSPISKASAQQRAGRAGRTRPGKCFRLYTEEAFKKELIEQTYPEILRSNLSNTVLELKKLGVEDLVHFDLMDPPAPETMMRALEELNYLACLDDDGELTPLGNLASEFPLDPALAVMLISSPEFYCSNEILSITSLLSVPQIWVRPANARKRADEMKAQFAHPDGDHLTLLNAYHAYKGAEARGEDMKKWCHEHFLSYRHLSSADCVRAQLKKIMETHGIELVSTPFHDKNYYTNIRRALLAGFFMQVAMRESSNSKVYKTVKDEQLVLIHPSTTVTTPYEWVVYNEFVLTTKQYVRTVTNIRPEWLLEIAPVYYDLSTFQKGEIKNALTRVAEKIRRQQAMKASKA", "values": [
      {"measurement": "Km", "setting": "[2]; [3]", "result": "16.23 ± 2.38", "unit": "µM"},
      {"measurement": "kcat", "setting": "[2]; [3]", "result": 0.084, "unit": "s⁻¹"}
    ]}
  ]
}
